# According to patent US20240018252A1 (Pfizer, published 2024):
# Residue numbers refer to the chain shown, from its start.
# B1: L3.PY/H3.TAQ (antibody, V domains shown)
# VH: EVQLLESGGGLVQPGGSLRLSCAASGFTFGSYAMTWVRQAPGKGLEWVSAISGSGGNTFYADSVKGRFTISRDNSKNTLYLQMNSLRAEDTAVYYCTRVSPIAAQMDYWGQGTLVTVSS
# VL: EIVLTQSPGTLSLSPGERATLSCRASQSVSSSYLAWYQQKPGQAPRLLIYGASSRATGIPDRFSGSGSGTDFTLTISRLEPEDFAVYYCQHYPYPPSFTFGQGTKVEIK
# notes: IgG in the assay; also called P6E01 L3PY/H3TAQ
# B2: L3.PY/L1.AH/H2.HA (antibody, V domains shown)
# VH: B1 VH with G53H, S54A, T97A, A104S, Q105G
# VL: B1 VL with S31A, S32H
# notes: IgG in the assay
# B3: L3.PY/L1.AH/H2.LT (antibody, V domains shown)
# VH: B1 VH with G53L, S54T, T97A, A104S, Q105G
# VL: B1 VL with S31A, S32H
# notes: IgG in the assay
# B4: L3.PY/L1.FF/P6E01 (antibody, V domains shown)
# VH: B1 VH with T97A, A104S, Q105G
# VL: B1 VL with S32F, Y33F
# notes: IgG in the assay
# B5: L3.PY/L1.AH/H2.QL (antibody, V domains shown)
# VH: B1 VH with S63Q, V64L, T97A, A104S, Q105G
# VL: B1 VL with S31A, S32H
# notes: IgG in the assay
# B6: L3.PY/L1.AH/P6E01 (antibody, V domains shown)
# VH: B1 VH with T97A, A104S, Q105G
# VL: B1 VL with S31A, S32H
# notes: IgG in the assay
# B7: L3.PY/H3.YA (antibody, V domains shown)
# VH: B1 VH with T97A, A103Y, Q105G
# VL: B1 VL
# notes: IgG in the assay
# B8: L3.PY/L1.PH/P6E01 (antibody, V domains shown)
# VH: B1 VH with T97A, A104S, Q105G
# VL: B1 VL with S31P, S32H
# notes: IgG in the assay
# B9: L3.PY/L1.AH/H3.AE (antibody, V domains shown)
# VH: B1 VH with T97A, Q105E
# VL: B1 VL with S31A, S32H
# notes: IgG in the assay
# B10: L3.PY/L1.AH/H2.YQ (antibody, V domains shown)
# VH: B1 VH with G53Y, S54Q, T97A, A104S, Q105G
# VL: B1 VL with S31A, S32H
# notes: IgG in the assay
# B11: L3.PY/L1.AH/H2.QR (antibody, V domains shown)
# VH: B1 VH with S63Q, V64R, T97A, A104S, Q105G
# VL: B1 VL with S31A, S32H
# notes: IgG in the assay
# B12: L3.PY/L1.AH/H3.YA (antibody, V domains shown)
# VH: B1 VH with T97A, A103Y, Q105G
# VL: B1 VL with S31A, S32H
# notes: IgG in the assay
# B13: L3.PY/L1.AH/H3.AQ (antibody, V domains shown)
# VH: B1 VH with T97A
# VL: B1 VL with S31A, S32H
# notes: IgG in the assay
# B14: L3.PY/L1.AH/H2.DY (antibody, V domains shown)
# VH: B1 VH with S52D, G53Y, T97A, A104S, Q105G
# VL: B1 VL with S31A, S32H
# notes: IgG in the assay
# B15: L3.PY/L1.PS/H2.HA (antibody, V domains shown)
# VH: B1 VH with G53H, S54A, T97A, A104S, Q105G
# VL: B1 VL with L34P, A35S
# notes: IgG in the assay
# B16: L3.PY/L1.PS/H2.DY (antibody, V domains shown)
# VH: B1 VH with S52D, G53Y, T97A, A104S, Q105G
# VL: B1 VL with L34P, A35S
# notes: IgG in the assay
# Biological target: T1, cyBCMA (cynomolgus, UniProt A0A2K5UD97 1-53)
# T1 construct: Soluble analyte in SPR; construct not described; also called cyno BCMA
# T1 sequence (A0A2K5UD97 entry or part of it): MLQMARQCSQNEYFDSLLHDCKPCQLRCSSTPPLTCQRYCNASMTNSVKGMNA
# Test: SPR, immobilised IgG, 37° C
row,Binder,T½ [min]
1,B1,2.64
2,B2,2.63
3,B3,3.91
4,B4,1.96
5,B5,1.21
6,B6,2.02
7,B7,2.14
8,B8,1.46
9,B9,3.25
10,B10,2.68
11,B11,2.35
12,B12,2.2
13,B13,2.9
14,B14,2.56
15,B15,4.3
16,B16,3.06

# Biological target: T2, human BCMA (human, UniProt Q02223 1-54)
# T2 construct: also called huBCMA; hBCMA
# T2 sequence: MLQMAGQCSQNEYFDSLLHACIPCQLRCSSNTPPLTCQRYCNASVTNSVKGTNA
# Test: SPR, immobilised IgG, 37° C
row,Binder,T½ [min]
1,B1,10.1
2,B2,6.37
3,B3,9.38
4,B4,8.18
5,B5,7.22
6,B6,9.19
7,B7,9.82
8,B8,12.7
9,B9,6.7
10,B10,6
11,B11,6.39
12,B12,7.73
13,B13,5.85
14,B14,7.62
15,B15,1.09
16,B16,3.2
